Laboratory results as given in the Immune Epitope Database (IEDB).
Blank lines part the entries; values can stand above or below the sequence they belong to.

How the values were obtained:
HLA-A*68:02 = test: IEDB peptide-MHC binding, purified MHC/competitive/radioactivity; filed as Kd, often an IC50 or EC50 that approximates it; ≥ and ≤ were set here for values at or beyond the usual limits of such assays
HLA-A*02:01 = test: as above
HLA-B*58:01 = test: IEDB peptide-MHC binding, purified MHC/direct/fluorescence; filed as Kd, often an IC50 or EC50 that approximates it; ≥ and ≤ were set here for values at or beyond the usual limits of such assays
HLA-B*57:01 = test: as above
HLA-B*40:01 = test: IEDB peptide-MHC binding, purified MHC/competitive/radioactivity; filed as Kd, often an IC50 or EC50 that approximates it; ≥ and ≤ were set here for values at or beyond the usual limits of such assays
HLA-B*44:02 = test: as above
HLA-A*32:01 = test: as above
HLA-A*29:02 = test: as above
HLA-A*24:02 = test: as above
HLA-A*23:01 = test: as above
HLA-A*30:02 = test: as above
HLA-A*01:01 = test: as above
HLA-A*26:01 [1] = test: as above
HLA-A*30:01 = test: as above
HLA-B*44:03 = test: as above
HLA-A*02:06 = test: as above
HLA-B*15:01 [2] = test: IEDB peptide-MHC binding, purified MHC/competitive/fluorescence; filed as Kd, often an IC50 or EC50 that approximates it; ≥ and ≤ were set here for values at or beyond the usual limits of such assays; settings: source organism: Human immunodeficiency virus 1
HLA-A*02:03 = test: IEDB peptide-MHC binding, purified MHC/competitive/radioactivity; filed as Kd, often an IC50 or EC50 that approximates it; ≥ and ≤ were set here for values at or beyond the usual limits of such assays
HLA-A*02:02 = test: as above
HLA-A*26:01 [3] = test: IEDB peptide-MHC binding, purified MHC/direct/fluorescence; filed as Kd, often an IC50 or EC50 that approximates it; ≥ and ≤ were set here for values at or beyond the usual limits of such assays
HLA-B*15:01 [4] = test: as above; settings: source organism: SARS-CoV1
HLA-B*27:05 = test: as above; settings: source organism: SARS-CoV1
HLA-A*11:01 = test: as above; settings: source organism: SARS-CoV1
[5] = source organism: Dengue virus 4 Philippines/H241/1956
[6] = source organism: Orthohantavirus dobravaense
[7] = source organism: Dengue virus 3 Martinique/1243/1999
[8] = source organism: Vaccinia virus WR
[9] = source organism: Mammarenavirus juninense
[10] = source organism: Dengue virus 2 Jamaica/1409/1983
[11] = source organism: Dengue virus 3 Singapore/8120/1995
[12] = source organism: Dengue virus 1 Brazil/97-11/1997
[13] = source organism: Mammarenavirus guanaritoense
[14] = source organism: SARS coronavirus Tor2
[15] = source organism: Hepatitis C virus (isolate BK)
[16] = source organism: Vibrio vulnificus YJ016

Sequence: ITPRSPSVEV
Kd (HLA-A*68:02; [5]): 575 nM

Kd (HLA-A*02:01; source organism: Homo sapiens): 6.29 µM
Sequence: ITQLMPFGC

Sequence: KALIATATW
Kd (HLA-B*58:01; [6]): 12.5 nM
Kd (HLA-B*57:01; [6]): 25.3 nM

Sequence: KEKVVGRII
Kd (HLA-B*40:01; [5]): 2860 nM

Sequence: KEVSETQHG
Kd (HLA-B*44:02; [7]): 6770 nM

Sequence: KINEVVEIF
Kd (HLA-A*32:01; [8]): 19.3 nM

Sequence: KTPVESWEEI
Kd (HLA-A*32:01; source organism: Dengue virus 2 Peru/IQT2913/1996): 1610 nM

Sequence: LCLSGDGWPY
Kd (HLA-A*29:02; [9]): 0.148 µM
Kd (HLA-A*24:02; [9]): ≥ 70300 nM
Kd (HLA-A*23:01; [9]): ≥ 70000 nM
Kd (HLA-A*30:02; [9]): 1.46 µM
Kd (HLA-A*32:01; [9]): 16900 nM
Kd (HLA-A*01:01; [9]): 1.03 µM
Kd (HLA-A*26:01 [1]; [9]): ≥ 69.7 µM
Kd (HLA-A*30:01; [9]): ≥ 55.6 µM

Sequence: LEPPFGDSYI
Kd (HLA-B*40:01; [5]): 6420 nM

Sequence: LERAADVKW
Kd (HLA-B*44:02; [10]): 130 nM
Kd (HLA-B*44:03; [10]): 214 nM

Sequence: LFSGVSWVMK
Kd (HLA-A*32:01; [7]): 10100 nM

Sequence: LTAAVLLLV
Kd (HLA-A*01:01; [11]): 16.7 µM
Kd (HLA-A*68:02; [11]): 1.36 nM
Kd (HLA-A*02:06; [11]): 120 nM

Sequence: LTAIANQAAI
Kd (HLA-A*01:01; [12]): 10.2 µM
Kd (HLA-A*68:02; [12]): 22.9 nM

Sequence: LVGKLNWASQIY
Kd (HLA-B*15:01 [2]): 2210 nM

Sequence: MAVGMVSILA
Kd (HLA-A*68:02; [10]): 3.29 nM

Sequence: MEDKTHVSSW
Kd (HLA-B*44:02; [12]): 82.3 nM
Kd (HLA-B*44:03; [12]): 111 nM

Sequence: MMLVPLITV
Kd (HLA-A*02:03; [8]): ≥ 52100 nM
Kd (HLA-A*68:02; [8]): 5160 nM
Kd (HLA-A*02:02; [8]): 1020 nM
Kd (HLA-A*02:06; [8]): ≥ 77100 nM

Sequence: MSTYGWNLV
Kd (HLA-A*01:01; [10]): 8.5 µM
Kd (HLA-A*68:02; [10]): 11.9 nM

Sequence: MTMKMMVHI
Kd (HLA-A*32:01; [8]): 4.75 nM

Kd (HLA-A*68:02; source organism: Homo sapiens): ≥ 60000 nM
Sequence: NMALKKIREL

Kd (HLA-A*68:02; source organism: Homo sapiens): ≥ 65200 nM
Kd (HLA-A*02:01; source organism: Homo sapiens): ≥ 70.3 µM
Sequence: PLEGSEDRII

Sequence: QIHLAIMAV
Kd (HLA-A*68:02; [5]): 287 nM

Sequence: QTDPLWQKY
Kd (HLA-A*26:01 [3]; source organism: Vibrio vulnificus CMCP6): 2780 nM

Sequence: QWFLDLPLPW
Kd (HLA-A*24:02; [10]): 115 nM
Kd (HLA-A*23:01; [10]): 11.7 nM
Kd (HLA-B*44:03; [10]): 2780 nM

Sequence: RETACLGKSY
Kd (HLA-B*44:03; [12]): 70.3 nM

Sequence: RLENVMWKQI
Kd (HLA-A*32:01; source organism: Dengue virus 4 Dominica/814669/1981): 1840 nM

Sequence: SEIPNLDIIG
Kd (HLA-B*44:03; [10]): 1090 nM

Sequence: SIYGFGVTF
Kd (HLA-A*32:01; [8]): 0.113 nM

Sequence: SSKNQTWQIE
Kd (HLA-A*32:01; [5]): ≥ 31600 nM

Sequence: SVSGTFVAEF
Kd (HLA-A*29:02; [13]): 9.06 µM
Kd (HLA-A*30:02; [13]): 7.91 µM
Kd (HLA-A*32:01; [13]): 4410 nM
Kd (HLA-A*01:01; [13]): ≥ 45.2 µM
Kd (HLA-A*26:01 [1]; [13]): 3.07 µM
Kd (HLA-A*30:01; [13]): ≥ 40 µM

Sequence: TEAKMLLDNI
Kd (HLA-B*44:03; [12]): 617 nM

Sequence: TLMNVITLV
Kd (HLA-B*15:01 [4]): 6.12 µM
Kd (HLA-A*26:01 [3]; source organism: SARS-CoV1): 1120 nM
Kd (HLA-B*27:05): 10.1 µM
Kd (HLA-A*11:01): ≥ 26.9 µM
Kd (HLA-A*02:03; [14]): 0.251 nM
Kd (HLA-A*02:02; [14]): 0.34 nM
Kd (HLA-A*02:06; [14]): 0.697 nM

Sequence: TVIFQTVVI
Kd (HLA-A*32:01; [8]): 569 nM

Sequence: VEDYGFGIF
Kd (HLA-B*40:01; [12]): 388 nM

Sequence: VEMGEAAAI
Kd (HLA-B*40:01; [5]): 134 nM
Kd (HLA-B*44:02; [5]): 12.9 nM
Kd (HLA-B*44:03; [5]): 27.7 nM

Sequence: VLTDFKTWL
Kd (HLA-A*02:03; [15]): 7.3 nM
Kd (HLA-A*68:02; [15]): 2300 nM
Kd (HLA-A*02:01; [15]): 0.00406 µM
Kd (HLA-A*02:02; [15]): 1.56 nM
Kd (HLA-A*02:06; [15]): 140 nM

Sequence: VSGKLIHEW
Kd (HLA-B*57:01; source organism: dengue virus type 3): 43.5 nM

Sequence: WELVDKERAL
Kd (HLA-B*40:01; [5]): 24 nM

Sequence: WMSPTYQSW
Kd (HLA-B*58:01; [16]): 8.3 nM
Kd (HLA-B*57:01; [16]): 62.4 nM

Sequence: WRFQGSWNTG
Kd (HLA-A*32:01; [12]): ≥ 49000 nM
